# Reference: publication PMC5648754, “CryoEM structure of Saccharomyces cerevisiae U1 snRNP offers insight into alternative splicing” (Nature Communications, 2017)
# T1: yeast Snu71 (S. cerevisiae, UniProt P53207 1-620)
# T1 construct: Snu71 of S. cerevisiae U1 snRNP; not modelled in the structure; source: endogenous, S. cerevisiae; co-purified in U1 snRNP through the TAP tag on U1A
# T1 sequence (looked up): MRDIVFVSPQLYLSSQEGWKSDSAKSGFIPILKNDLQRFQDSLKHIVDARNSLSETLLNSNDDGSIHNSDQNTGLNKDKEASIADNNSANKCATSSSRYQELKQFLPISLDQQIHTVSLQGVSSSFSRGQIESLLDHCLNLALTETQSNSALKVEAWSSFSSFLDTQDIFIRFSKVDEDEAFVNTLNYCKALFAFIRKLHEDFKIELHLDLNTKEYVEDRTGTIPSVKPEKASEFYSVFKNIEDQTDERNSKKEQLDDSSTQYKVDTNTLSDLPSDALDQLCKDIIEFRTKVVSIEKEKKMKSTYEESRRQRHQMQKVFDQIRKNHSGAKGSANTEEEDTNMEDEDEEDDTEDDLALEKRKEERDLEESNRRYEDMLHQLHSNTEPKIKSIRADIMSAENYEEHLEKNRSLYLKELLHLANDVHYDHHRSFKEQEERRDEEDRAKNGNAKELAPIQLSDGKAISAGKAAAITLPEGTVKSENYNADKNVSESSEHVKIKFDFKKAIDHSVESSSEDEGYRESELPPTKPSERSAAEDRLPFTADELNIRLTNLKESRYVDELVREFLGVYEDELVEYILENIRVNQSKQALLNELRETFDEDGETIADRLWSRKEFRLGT
# T2: yeast U1-70K (S. cerevisiae, UniProt Q00916 1-300)
# T2 construct: U1-70K of S. cerevisiae U1 snRNP; residues 3-91 built, 94-188 (RRM) docked as homology model; source: endogenous, S. cerevisiae; co-purified in U1 snRNP through the TAP tag on U1A
# T2 sequence (looked up): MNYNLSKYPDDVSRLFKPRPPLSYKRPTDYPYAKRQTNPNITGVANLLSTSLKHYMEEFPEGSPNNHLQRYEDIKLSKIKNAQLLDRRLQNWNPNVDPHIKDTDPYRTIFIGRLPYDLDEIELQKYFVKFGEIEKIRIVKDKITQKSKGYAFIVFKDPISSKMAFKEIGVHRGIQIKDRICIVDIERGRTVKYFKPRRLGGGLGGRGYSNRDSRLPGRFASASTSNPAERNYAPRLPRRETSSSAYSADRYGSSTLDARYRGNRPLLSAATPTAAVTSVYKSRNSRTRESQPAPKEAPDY
# T3: yeast Prp39 (S. cerevisiae, UniProt P39682 1-629)
# T3 construct: Prp39 of S. cerevisiae, 629 residues; C-terminal TPR domain 326-552 and C-terminal region 561-627 built, 43-285 docked as homology model; source: endogenous, S. cerevisiae; co-purified in U1 snRNP through the TAP tag on U1A
# T3 sequence (looked up): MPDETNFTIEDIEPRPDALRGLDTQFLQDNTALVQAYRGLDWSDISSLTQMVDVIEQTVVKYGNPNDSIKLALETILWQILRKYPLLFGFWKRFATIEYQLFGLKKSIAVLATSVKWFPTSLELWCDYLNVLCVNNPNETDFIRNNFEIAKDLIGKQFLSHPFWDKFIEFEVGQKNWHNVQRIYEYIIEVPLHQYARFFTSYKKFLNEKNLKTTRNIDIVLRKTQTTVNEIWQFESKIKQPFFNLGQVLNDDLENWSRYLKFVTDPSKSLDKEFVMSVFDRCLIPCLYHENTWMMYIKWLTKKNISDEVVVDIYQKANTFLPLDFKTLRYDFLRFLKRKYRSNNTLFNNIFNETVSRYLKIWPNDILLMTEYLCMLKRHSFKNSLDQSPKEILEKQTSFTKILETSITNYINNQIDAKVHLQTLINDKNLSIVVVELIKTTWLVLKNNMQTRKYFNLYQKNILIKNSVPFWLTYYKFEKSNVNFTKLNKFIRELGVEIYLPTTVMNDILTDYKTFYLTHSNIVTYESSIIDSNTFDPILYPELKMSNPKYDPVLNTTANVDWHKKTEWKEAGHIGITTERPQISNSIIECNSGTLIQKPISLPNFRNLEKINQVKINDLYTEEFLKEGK
# B1: yeast SmG (natural protein, S. cerevisiae, UniProt P40204 1-77, looked up)
# chain: MVSTPELKKYMDKKILLNINGSRKVAGILRGYDIFLNVVLDDAMEINGEDPANNHQLGLQTVIRGNSIISLEALDAI
# notes: SmG of S. cerevisiae, member of the Sm ring of U1 snRNP; source: endogenous, S. cerevisiae; co-purified in U1 snRNP through the TAP tag on U1A
# B2: yeast Snu56 (natural protein, S. cerevisiae, UniProt Q03782 1-492, looked up)
# chain: MRPRRRGLAYHHTKPKGQLSQGHYPTTSNDGQRRKVGNSEAFQSFDIWKNLDRIRSTKKNAGQFIKGSLLILPMRTEDKQQFDECMDELHKYISKDILRCYPQKEQKDEGMLFYIVLKDFNILDSCFVLSVLLAFQKRLWMAPSEKSYFRVPKNINLTGSFYLPKNIETGRGHIITSYRREQPSSSIVEVGFNVVPDFQQFQVKACHVSKFMNELSNFFSQVEFGKCEANVINYFKREYNRTYSQISLALYELPLIGDGLFDIKSYISKTRPIIETSKAQMIKHISEMKAYNEISGLQGDQFPRQQRPLSNSPSSNSISSSQTIEAGATSYQTQPQRHAVNKPSNVLNSSNRHSGPKTFEDGRYSEGNKPGFMTQDEIKQHCIGTIKASMDAVKKKSSYQILKTYVRCPRQNYIDIVYQNLNDLRSKTNCNIVVLNLNNLHESQMWLESLNTTNYTIFAQAPHPSTIRVISIGGVGEYIVKALELILNILEH
# notes: Snu56 of S. cerevisiae, 492 residues; N-terminal domain 47-254 and long helix 255-303 modelled; source: endogenous, S. cerevisiae; co-purified in U1 snRNP through the TAP tag on U1A
# B3: yeast U1C (natural protein, S. cerevisiae, UniProt Q05900 1-231, looked up)
# chain: MTRYYCEYCHSYLTHDTLSVRKSHLVGKNHLRITADYYRNKARDIINKHNHKRRHIGKRGRKERENSSQNETLKVTCLSNKEKRHIMHVKKMNQKELAQTSIDTLKLLYDGSPGYSKVFVDANRFDIGDLVKASKLPQRANEKSAHHSFKQTSRSRDETCESNPFPRLNNPKKLEPPKILSQWSNTIPKTSIFYSVDILQTTIKESKKRMHSDGIRKPSSANGYKRRRYGN
# notes: U1C of S. cerevisiae U1 snRNP, 231 residues; NTD residues 1-48; residues 3-47 and 48-195 modelled; also called Yhc1; source: endogenous, S. cerevisiae; co-purified in U1 snRNP through the TAP tag on U1A
# B4: yeast Prp40 (natural protein, S. cerevisiae, UniProt P33203 1-583, looked up)
# chain: MSIWKEAKDASGRIYYYNTLTKKSTWEKPKELISQEELLLRENGWKAAKTADGKVYYYNPTTRETSWTIPAFEKKVEPIAEQKHDTVSHAQVNGNRIALTAGEKQEPGRTINEEESQYANNSKLLNVRRRTKEEAEKEFITMLKENQVDSTWSFSRIISELGTRDPRYWMVDDDPLWKKEMFEKYLSNRSADQLLKEHNETSKFKEAFQKMLQNNSHIKYYTRWPTAKRLIADEPIYKHSVVNEKTKRQTFQDYIDTLIDTQKESKKKLKTQALKELREYLNGIITTSSSETFITWQQLLNHYVFDKSKRYMANRHFKVLTHEDVLNEYLKIVNTIENDLQNKLNELRLRNYTRDRIARDNFKSLLREVPIKIKANTRWSDIYPHIKSDPRFLHMLGRNGSSCLDLFLDFVDEQRMYIFAQRSIAQQTLIDQNFEWNDADSDEITKQNIEKVLENDRKFDKVDKEDISLIVDGLIKQRNEKIQQKLQNERRILEQKKHYFWLLLQRTYTKTGKPKPSTWDLASKELGESLEYKALGDEDNIRRQIFEDFKPESSAPTAESATANLTLTASKKRHLTPAVELDY
# notes: Prp40 of S. cerevisiae U1 snRNP; not modelled in the structure; source: endogenous, S. cerevisiae; co-purified in U1 snRNP through the TAP tag on U1A
# B5: yeast Prp42 (natural protein, S. cerevisiae, UniProt Q03776 1-544, looked up)
# chain: MDKYTALIHDENFSTLTLNVSRYPKSLAYWEKLLNYIVKASAPICKSTEPQLLKLIRCTYSSMLNEFPYLENYYIDFALLEYKLGNVSMSHKIFQRGLQAFNQRSLLLWTSYLKFCNNVISHQKQLFKKYETAEEYVGLHFFSGEFWDLYLEQISSRCTSSKKYWNVLRKILEIPLHSFSKFYALWLQRIDDIMDLKQLSQLTSKDELLKKLKIDINYSGRKGPYLQDAKKKLKKITKEMYMVVQYQVLEIYSIFESKIYINYYTSPETLVSSDEIETWIKYLDYTITLQTDSLTHLNFQRALLPLAHYDLVWIKYSKWLINSKNDLLGAKNVLLMGLKFSLKKTEIIKLLYSVICKLNEYVLLRNLLEKIESSYSDNVENVDDFEIFWDYLQFKTFCQNSLYSSRYSDSQSNGLLNKELFDKVWKRLSCKEKKSGQEILLNNLVQFYSKDTVEFVEKNIFQKIIEFGWEYYLQNGMFWNCYCRLIYFDTSRSYLDKRQYIVRKIWPQIDKKFAQSVLPSLTEFCESYFPEEMDTLEEMFTEEP
# notes: Prp42 of S. cerevisiae, 544 residues; residues 2-540 modelled; source: endogenous, S. cerevisiae; co-purified in U1 snRNP through the TAP tag on U1A
# B6: yeast Nam8 (natural protein, S. cerevisiae, UniProt Q00539 1-523, looked up)
# chain: MSYKQTTYYPSRGNLVRNDSSPYTNTISSETNNSSTSVLSLQGASNVSLGTTGNQLYMGDLDPTWDKNTVRQIWASLGEANINVRMMWNNTLNNGSRSSMGPKNNQGYCFVDFPSSTHAANALLKNGMLIPNFPNKKLKLNWATSSYSNSNNSLNNVKSGNNCSIFVGDLAPNVTESQLFELFINRYASTSHAKIVHDQVTGMSKGYGFVKFTNSDEQQLALSEMQGVFLNGRAIKVGPTSGQQQHVSGNNDYNRSSSSLNNENVDSRFLSKGQSFLSNGNNNMGFKRNHMSQFIYPVQQQPSLNHFTDPNNTTVFIGGLSSLVTEDELRAYFQPFGTIVYVKIPVGKCCGFVQYVDRLSAEAAIAGMQGFPIANSRVRLSWGRSAKQTALLQQAMLSNSLQVQQQQPGLQQPNYGYIPSSTCEAPVLPDNNVSSTMLPGCQILNYSNPYANANGLGSNNFSFYSNNNATNTQATSLLADTSSMDLSGTGGQQVIMQGSEAVVNSTNAMLNRLEQGSNGFMFA
# notes: Nam8 of S. cerevisiae, 523 residues; inter-RRM linker 289-302 and RRM3 303-383 and C-terminal tail modelled; source: endogenous, S. cerevisiae; co-purified in U1 snRNP through the TAP tag on U1A
# Tests used:
# Conditions in all cases: both partners purified
# yeast Prp42 = target: B5; test: cryo-EM structure; natively purified yeast U1 snRNP, 3.6 Å overall resolution
# yeast Nam8 = target: B6; test: as above
# yeast Snu71 = target: T1, yeast Snu71; test: cross-linking; purified yeast U1 snRNP cross-linked with 100 uM BS3, 30 min, room temperature; trypsin digest, mass spectrometry
# yeast U1-70K = target: T2, yeast U1-70K; test: cryo-EM structure; natively purified yeast U1 snRNP, 3.6 Å overall resolution
# yeast Prp39 = target: T3, yeast Prp39; test: as above
binding result (yeast Prp42),binding result (yeast Nam8),binding result (yeast Snu71),binding result (yeast U1-70K),binding result (yeast Prp39),Binder
binds,–,–,–,–,B1
binds,binds,binds,–,–,B2
binds,binds,–,binds,–,B3
–,–,binds,–,–,B4
–,–,binds,–,binds,B5
binds,–,–,–,binds,B6
